One assay concerns the target T1, human DLL3-Fc (human).
T1 construct: also called soluble DLL3 protein
T1 chain: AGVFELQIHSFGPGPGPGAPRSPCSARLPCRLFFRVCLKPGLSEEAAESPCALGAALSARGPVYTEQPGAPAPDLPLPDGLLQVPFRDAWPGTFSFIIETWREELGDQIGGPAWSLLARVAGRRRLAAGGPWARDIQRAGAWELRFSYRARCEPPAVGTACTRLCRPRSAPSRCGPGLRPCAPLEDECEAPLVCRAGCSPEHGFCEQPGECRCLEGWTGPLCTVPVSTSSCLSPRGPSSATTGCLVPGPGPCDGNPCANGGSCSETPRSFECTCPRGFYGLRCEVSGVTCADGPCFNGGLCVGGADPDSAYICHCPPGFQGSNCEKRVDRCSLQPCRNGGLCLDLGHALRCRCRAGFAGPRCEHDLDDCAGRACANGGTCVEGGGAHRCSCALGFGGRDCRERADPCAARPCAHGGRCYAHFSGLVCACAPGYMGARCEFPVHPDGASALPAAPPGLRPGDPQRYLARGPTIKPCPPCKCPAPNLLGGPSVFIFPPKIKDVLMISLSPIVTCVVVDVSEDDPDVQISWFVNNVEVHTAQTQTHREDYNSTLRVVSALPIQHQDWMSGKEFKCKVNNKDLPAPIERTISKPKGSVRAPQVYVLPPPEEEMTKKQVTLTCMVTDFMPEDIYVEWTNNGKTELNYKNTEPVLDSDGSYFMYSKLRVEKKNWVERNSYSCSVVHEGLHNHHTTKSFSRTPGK
Nature of the assay: ELISA, immobilized human DLL3-Fc. As to the method: The competition of a chimeric antibody and a mouse antibody for binding to the antigen molecule was analyzed by ELISA (FIG. 8 (b)). Human DLL3-Fc was added at 10 ng/well to a Nunc immunoplate and immobilized thereon. A mixture (final concentration: 50 ng/ml) of the chimeric antibody and the appropriately diluted mouse antibody was added to the DLL3-Fc protein-immobilized plate. The plate was incubated at room temperature for 1 hour and then washed. Alkaline phosphatase-labeled anti-human antibodies were added thereto and incubated. After the incubation, Sigma 104 was added thereto, and the absorbance was measured. The binding of the chimeric antibody to the antigen molecule competed with that of the original mouse monoclonal antibody thereto.

In assay [1] the target is T2, human DLL3 expressed on cells (human DLL3/BaF3) (human, UniProt Q9NYJ7 27-618).
T2 construct: Full-length human DLL3 on the membrane of transformed Ba/F3 cells; The ADCC assays also used NCI-H1184 small-cell lung cancer cells that express DLL3; also called Delta-like 3; NM_016941
T2 sequence: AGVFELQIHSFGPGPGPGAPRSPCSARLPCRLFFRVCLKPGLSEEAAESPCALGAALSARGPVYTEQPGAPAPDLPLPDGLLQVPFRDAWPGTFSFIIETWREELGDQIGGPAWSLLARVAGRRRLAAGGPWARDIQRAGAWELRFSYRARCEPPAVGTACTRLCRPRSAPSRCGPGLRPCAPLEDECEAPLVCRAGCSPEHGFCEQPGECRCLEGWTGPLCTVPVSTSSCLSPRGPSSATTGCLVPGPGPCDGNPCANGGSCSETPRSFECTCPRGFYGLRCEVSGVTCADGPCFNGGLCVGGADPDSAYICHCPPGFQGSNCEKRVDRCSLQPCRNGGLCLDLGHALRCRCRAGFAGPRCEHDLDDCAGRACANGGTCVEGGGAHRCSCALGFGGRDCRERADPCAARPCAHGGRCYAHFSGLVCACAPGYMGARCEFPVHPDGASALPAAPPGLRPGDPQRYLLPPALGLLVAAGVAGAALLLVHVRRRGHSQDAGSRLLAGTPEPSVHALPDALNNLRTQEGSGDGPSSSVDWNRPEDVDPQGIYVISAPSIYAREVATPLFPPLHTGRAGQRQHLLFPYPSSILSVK
Nature of the assay: flow cytometry on human DLL3/BaF3 cells, chimeric antibody 1 µg/ml. As for the experimental part:
The chimeric antibody in the culture supernatant of COS-7 was confirmed to bind to the human DLL3 protein by flow cytometry and ELISA. The chimeric antibody concentration in the culture supernatant of COS-7 was calculated by sandwich ELISA. In this concentration calculation, a human chimeric antibody known for its concentration was used as a standard. The chimeric antibody (final concentration: 1 μg/ml) was added to human DLL3/BaF3 cells suspended in a FACS buffer (PBS containing 1% fetal bovine serum). After incubation at 4° C. for 30 minutes and washing, the cells were reacted with FITC-labeled anti-human antibodies (Beckman Coulter, Inc.), and the binding of the chimeric antibody was analyzed using a flow cytometer FACSCalibur. […] None of the chimeric antibodies bound to Ba/F3 cells, which were a parental line of the forced expressing cells. Human DLL3-Fc was immobilized on a Nunc immunoplate, and the binding of each chimeric antibody to the immobilized protein was analyzed. For detecting antigen-bound chimeric antibodies, the chimeric antibody was added thereto, and alkaline phosphatase-labeled anti-human antibodies (Biosource, AHI0305) and an alkaline phosphatase substrate Sigma 104 were then added in this order. The absorbance was determined. The DL301, DL309, and DL312 chimeric antibodies bound to human DLL3-Fc in a dose-dependent manner (FIG. 8(a)).
COS-7 cells were transfected with the DL306 chimeric antibody expression vector and allowed to transiently express the chimeric antibody. The chimeric antibody in the culture supernatant of COS-7 was confirmed to bind to the human DLL3 protein by flow cytometry. The chimeric antibody concentration in the culture supernatant of COS-7 was calculated by sandwich ELISA. In this concentration calculation, a human chimeric antibody known for its concentration was used as a standard. […] After incubation at 4° C. for 30 minutes and washing, the cells were reacted with FITC-labeled anti-human antibodies (Beckman Coulter, Inc.), and the binding of the chimeric antibody was analyzed using a flow cytometer FACSCalibur.

B1: DL312 human chimeric antibody (antibody, human IgG1, kappa)
heavy: not shown
light: DIQMTQSPSSLSASLGERVSLTCRASQEISDYLSWLQQKPDGTIKRLIFAASTLDSGVPKRFSGSRSGSDFSLSISSLESEDFADYYCLQYASYPYTFGSGTKLEIKRTVAAPSVFIFPPSDEQLKSGTASVVCLLNNFYPREAKVQWKVDNALQSGNSQESVTEQDSKDSTYSLSSTLTLSKADYEKHKVYACEVTHQGLSSPVTKSFNRGEC
notes: Mouse variable regions with human IgG1 constant regions; also called chimeric antibody DL312; DL312 chimeric antibody
As to B1, the binding result (in the assay with human DLL3-Fc; in assay [1]) was “binds” each time.

B2: DL309 human chimeric antibody (antibody, human IgG1, kappa)
heavy: not shown
light: DIVMTQSQKFMSTSVGDRVSVTCKASQNVGTNVAWYQQKPGQSPKALIYSASYRYSGVPDRFTGSGSGTDFTLTISNVQSEDLAEYFCQQYNNYPLTFGAGTKLELKRTVAAPSVFIFPPSDEQLKSGTASVVCLLNNFYPREAKVQWKVDNALQSGNSQESVTEQDSKDSTYSLSSTLTLSKADYEKHKVYACEVTHQGLSSPVTKSFNRGEC
notes: Mouse variable regions with human IgG1 constant regions; also called chimeric antibody DL309; DL309 chimeric antibody
On to B2, for which the binding result (in the assay with human DLL3-Fc; in assay [1]) was “binds” throughout.

B3: DL301 human chimeric antibody (antibody, human IgG1, kappa)
heavy: not shown
light: DIKMTQSPSSMYASLGERVTITCKASQDINSYLIWFQQKPGKSPKTLIYRTNRLVDGVPSRFSGSGSGQDYSLTISSLEYGDMGIYYCLQYDEFPFTFGSGTKLEIKRTVAAPSVFIFPPSDEQLKSGTASVVCLLNNFYPREAKVQWKVDNALQSGNSQESVTEQDSKDSTYSLSSTLTLSKADYEKHKVYACEVTHQGLSSPVTKSFNRGEC
notes: Mouse variable regions with human IgG1 constant regions; also called chimeric antibody DL301; DL301 chimeric antibody
Consider B3, for which the binding result (with human DLL3-Fc; in assay [1]) was “binds” in each case.

(Values after patent publication US20250236679A1 (Chugai, published 2025).)
